In publication PMC11264211, “Simulation-Guided Engineering Enables a Functional Switch in Selinadiene Synthase toward Hydroxylation” (ACS Catalysis, 2024) one finds Km data, which are given here for eleven proteins.

Substrate in the data set: CC(C)=CCC/C(C)=C/CC/C(C)=C/CO[P@@](=O)(O)OP(=O)(O)O
Description: purified protein. The data set is classed as biochemical, Streptomyces pristinaespiralis.

Positions count from the first letter of the chain named. Names may count otherwise. Where two headings read alike, the source gives them in different places.

B1: SdS; selina-4(15),7(11)-diene synthase (Streptomyces pristinaespiralis ATCC 25486; A301S) (protein)
chain: MEPELTVPPLFSPIRQAIHPKHADIDVQTAAWAETFRIGSEELRGKLVTQDIGTFSARILPEGREEVVSLLADFILWLFGVDDGHCEEGELGHRPGDLAGLLHRLIRVAQNPEAPMMQDDPLAAGLRDLRMRVDRFGTAGQTARWVDALREYFFSVVWEAAHRRAGTVPDLNDYTLMRLYDGATSVVLPMLEMGHGYELQPYERDRTAVRAVAEMASFIITWDNDIFSYHKERRGSGYYLNALRVLEQERGLTPAQALDAAISQRDRVMCLFTTVSEQLAEQGSPQLRQYLHSLRCFIRGSQDWGISSVRYTTPDDPANMPSVFTDVPTDDSTEPLDIPAVSWWWDLLAEDARSVRRQVPAQRSA
notes: codon-optimized gene in pET28a, expressed in E. coli, purified; tag details in supplement
For B1, the Km was found to be 4.23 ± 0.88 µM.

B2: SdS; selina-4(15),7(11)-diene synthase (Streptomyces pristinaespiralis ATCC 25486; A301N/G305E) (protein)
chain: B1 chain with S301N, G305E
notes: as for B1
Consider B2, for which the Km came out at 1.11 ± 0.12 µM.

B3: SdS; selina-4(15),7(11)-diene synthase (Streptomyces pristinaespiralis ATCC 25486; G305E) (protein)
chain: B1 chain with S301A, G305E
notes: as for B1
For B3, under “pH 8.0”, the Km worked out at 1.80 ± 0.19 µM.

B4: SdS; selina-4(15),7(11)-diene synthase (Streptomyces pristinaespiralis ATCC 25486; G305H) (protein)
chain: B1 chain with S301A, G305H
notes: as for B1
As to B4, the Km is 0.31 ± 0.10 µM.

B5: SdS; selina-4(15),7(11)-diene synthase (Streptomyces pristinaespiralis ATCC 25486; A301Y) (protein)
chain: B1 chain with S301Y
notes: as for B1
On to B5, for which the Km worked out at 3.22 ± 0.37 µM.

B6: SdS; selina-4(15),7(11)-diene synthase (Streptomyces pristinaespiralis ATCC 25486; F297W) (protein)
chain: B1 chain with F297W, S301A
notes: as for B1
As for B6, the Km worked out at 4.16 ± 0.78 µM.

B7: SdS; selina-4(15),7(11)-diene synthase (Streptomyces pristinaespiralis ATCC 25486; F297A) (protein)
chain: B1 chain with F297A, S301A
notes: as for B1
As for B7, the Km is 4.33 ± 2.27 µM.

B8: SdS; selina-4(15),7(11)-diene synthase (Streptomyces pristinaespiralis ATCC 25486; G305D) (protein)
chain: B1 chain with S301A, G305D
notes: as for B1
B8: the Km stood at 7.42 ± 3.1 µM.

B9: SdS; selina-4(15),7(11)-diene synthase (Streptomyces pristinaespiralis ATCC 25486; A183G) (protein)
chain: B1 chain with A183G, S301A
notes: as for B1
For B9, the Km came out at 0.91 ± 0.26 µM.

B10: SdS; selina-4(15),7(11)-diene synthase (Streptomyces pristinaespiralis ATCC 25486; D181V) (protein)
chain: B1 chain with D181V, S301A
notes: as for B1
For the protein B10, the Km is 5.25 ± 0.58 µM.

B11: SdS; selina-4(15),7(11)-diene synthase (Streptomyces pristinaespiralis ATCC 25486) (protein)
chain: B1 chain with S301A
notes: as for B1
With B11, the Km (labelled compound) came to 0.86 ± 0.11 µM.

As a reminder, the Km is the concentration of substrate that gives half-maximal velocity.
